Experimental data taken from publication PMC4660580, “Mode of interaction of the Gαo subunit of heterotrimeric G proteins with the GoLoco1 motif of Drosophila Pins is determined by guanine nucleotides” (Bioscience Reports, 2015).
Ends that are not written are not given here. Peptide text beside a SMILES is read from it. * marks the point of attachment. Dansyl = CN(C)c1cccc2c(S(=O)(=O)*)cccc12

Tests used:
Gαo-GDP = Gαo-GDP (Drosophila melanogaster, UniProt P16378); experiment: biochemical
Protocol: (§1) Hexahistidine-tagged Drosophila Gαo, Gαo[W132F; W212F] and Gαo[W132F; W259F] were purified following. In brief, Top10 bacteria transformed with the corresponding construct were grown in LB media until an OD600=0.6, expression was induced with 0.1 mM IPTG and cells further grown overnight at room temperature. Cells were harvested, resuspended in PBS supplemented with Complete Protease Inhibitor cocktail (Roche) and lysed with Lysozyme and sonication. Binding of the His6 tagged proteins to the Ni-NTA agarose was conducted in 10 mM Imidazole in PBS. After washing in 20 mM Imidazole/PBS the proteins were eluted in 200–250 mM Imidazole/PBS. […] The 36-mer GoLoco1 peptide and the GoLoco1 peptide with the dansyl (5-(dimethylamino)naphthalene-1-sulfonyl) group attached to the side chain of the N-terminal lysine were synthesized by Pepscan Presto BV. Non-dansylated GoLoco1 was dissolved in water, dansyl-GoLoco1 was dissolved at 10 mM in 50% propan-2-ol and stored at -20°C.
(§2) Fluorescence measurements were performed at RT using the Biotek SynergyMx plate reader. For all experiments, the Gαo subunits were pre-incubated with 1 mM GDP or GTPγS for >30 min at RT. For FRET measurements, preloaded Gαo was added in a final concentration of 10 μM to increasing concentration of dansylated GoLoco1 in HKB (50 mM Hepes-KOH, 100 mM KCl, 10 mM NaCl, 2 mM EGTA, 5 mM MgCl2, 1 mM DTT) and incubated for 30 min before measurement.

Gαo-GTPγS [1] = molecular target: T1, Gαo-GTPγS (Drosophila melanogaster, UniProt P16378); experiment: biochemical; format: binding; parameters: His6 (hexahistidine); made in house; host or cells: E. coli Top10
T1 sequence (P16378 other isoform, or with tags, fused parts or gaps): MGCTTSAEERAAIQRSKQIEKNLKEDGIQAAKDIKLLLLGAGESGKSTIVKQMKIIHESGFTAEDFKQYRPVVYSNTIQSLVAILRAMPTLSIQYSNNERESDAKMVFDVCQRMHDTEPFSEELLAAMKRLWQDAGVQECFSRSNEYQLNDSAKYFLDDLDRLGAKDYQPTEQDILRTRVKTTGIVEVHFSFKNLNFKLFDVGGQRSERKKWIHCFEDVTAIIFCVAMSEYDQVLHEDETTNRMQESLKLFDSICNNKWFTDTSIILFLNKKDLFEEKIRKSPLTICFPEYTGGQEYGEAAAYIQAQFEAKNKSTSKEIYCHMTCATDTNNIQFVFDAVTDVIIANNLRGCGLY
Protocol: Trp-to-dansyl FRET was measured as above.

[2] = molecular target: Hexahistidine-tagged Drosophila Gαo (class II isoform), wild type (Drosophila); experiment: FRET or BRET; competition: Gαo preloaded with GDP and dansylated GoLoco1 at 1:1 (5–10 μM), pre-incubated 10 min, then increasing unlabelled GoLoco1 in HKB, 30 min, RT; Trp-to-dansyl FRET
[3] = molecular target: Hexahistidine-tagged Drosophila Gαo (class II isoform), wild type (Drosophila); experiment: FRET or BRET; competition: Gαo preloaded with GTPγS and dansylated GoLoco1 at 1:1 (5–10 μM), pre-incubated 10 min, then increasing unlabelled GoLoco1 in HKB, 30 min, RT; Trp-to-dansyl FRET
Gαo-GTPγS [4] = molecular target: T1, Gαo-GTPγS; experiment: biochemical
Protocol: as §1, §2

[5] = molecular target: Hexahistidine-tagged Drosophila Gαo (class II isoform), wild type (Drosophila); experiment: FRET or BRET; Trp-to-dansyl FRET (excitation 280 nm, emission 535 nm), saturation: 10 μM Gαo preloaded with 1 mM GTPγS added to increasing dansylated GoLoco1; HKB buffer, 30 min, RT
[6] = molecular target: Hexahistidine-tagged Drosophila Gαo (class II isoform), wild type (Drosophila); experiment: FRET or BRET; quenching of the donor: tryptophan fluorescence (excitation 280 nm, emission 330 nm) of 5 μM Gαo preloaded with GDP, 30 min with dansylated against unlabelled GoLoco1, RT; E = 1 - FD-A/FD
[7] = molecular target: Hexahistidine-tagged Drosophila Gαo[W132F; W212F] (Drosophila); experiment: as above
[8] = molecular target: Hexahistidine-tagged Drosophila Gαo[W132F; W259F] (Drosophila); experiment: as above
[9] = molecular target: Hexahistidine-tagged Drosophila Gαo[W132F; W259F] (Drosophila); experiment: FRET or BRET; quenching of the donor: tryptophan fluorescence (excitation 280 nm, emission 330 nm) of 5 μM Gαo preloaded with GTPγS, 30 min with dansylated against unlabelled GoLoco1, RT; E = 1 - FD-A/FD
[10] = molecular target: Hexahistidine-tagged Drosophila Gαo (class II isoform), wild type (Drosophila); experiment: FRET or BRET; Trp-to-dansyl FRET (excitation 280 nm, emission 535 nm), saturation: 10 μM Gαo preloaded with 1 mM GDP added to increasing dansylated GoLoco1; HKB buffer (50 mM Hepes-KOH, 100 mM KCl, 10 mM NaCl, 2 mM EGTA, 5 mM MgCl2, 1 mM DTT), 30 min, RT

Sequence of Gαo-GDP (P16378 other isoform, or with tags, fused parts or gaps): as above

`CC[C@H](C)[C@H](NC(=O)[C@H](CO)NC(=O)[C@H](CS)NC(=O)[C@H](CCCNC(=N)N)NC(=O)[C@H](CCC(N)=O)NC(=O)[C@H](CC(=O)O)NC(=O)[C@H](CC(=O)O)NC(=O)[C@H](CCSC)NC(=O)[C@H](CCCNC(=N)N)NC(=O)[C@H](CCCCN)NC(=O)[C@H](CO)NC(=O)[C@H](CCC(N)=O)NC(=O)[C@H](CO)NC(=O)[C@H](CCCNC(=N)N)NC(=O)[C@H](CO)NC(=O)[C@H](CC(C)C)NC(=O)[C@H](CCSC)NC(=O)[C@H](CCC(=O)O)NC(=O)[C@H](Cc1ccccc1)NC(=O)[C@H](Cc1ccccc1)NC(=O)[C@H](CC(=O)O)NC(=O)[C@H](CC(=O)O)NC(=O)[C@H](CC(=O)O)NC(=O)[C@@H](N)CCCCNS(=O)(=O)c1cccc2c(N(C)C)cccc12)C(=O)N[C@@H](CCCCN)C(=O)N[C@H](C(=O)N[C@@H](CC(N)=O)C(=O)N1CCC[C@H]1C(=O)N[C@@H](CO)C(=O)NCC(=O)N[C@@H](C)C(=O)N1CCC[C@H]1C(=O)N[C@@H](C)C(=O)N[C@H](C(=O)N[C@@H](C)C(=O)N[C@H](C(=O)O)[C@@H](C)O)C(C)C)C(C)C` [dGoLoco1] (H-K(Dansyl)DDDFFEMLSRSQSKRMDDQRCSIKVNPSGAPAVAT-OH) gave a Kd (Gαo-GDP) of 4.6 µM and a Kd (Gαo-GTPγS [1]) of 2.1 µM.
“GoLoco1 peptide of Drosophila Pins (unlabelled)” gave a Ki [2] of 17.6 µM and a Ki [3] of 10.6 µM.
Work on “KDDDFFEMLSRSQSKRMDDQRCSIKVNPSGAPAVAT [GoLoco1]” yielded a Ki (Gαo-GDP) of 17.6 µM and a Ki (Gαo-GTPγS [4]) of 10.6 µM.
“dansylated GoLoco1 peptide of Drosophila Pins” gave a Kd [5] of 2.1 µM, an FRET efficiency E [6] of 0.474 and an FRET efficiency E [7] of 0.478. For the same compound, the FRET efficiency E [8] was 0.544, the FRET efficiency E [9] was 0.127 and the Kd [10] was 4.6 µM.
